Consider one molecule from patent US11896644B2, “Inhibition of beta-arrestin oligomerization in tauopathy” (UNIVERSITY OF SOUTH FLORIDA, priority 2020, dated 2024).

In test [1] the target is T1, HA-p62 and GFP-p62 interaction (Homo sapiens, UniProt Q13501).
T1 construct: #38277; host or cells: Hela-V5-tau cells
In words: Co-IP of HA-p62 and GFP-p62 interaction. The note with it: Hela-V5-tau cells. It counts as cell-based. The text has this:
(§1) FIGS. 12A to 12E show β-arrestin2 interacts with p62, and β-arrestin2 oligomerization inhibits p62 self-interaction. FIG. 12A contains representative confocal images of mCherry and EGFP in Hela-V5-tau cells transfected with mCherry-GFP-p62 together with control vector, β-arrestin2-flag, or β-arrestin2 ΔIP6N-flag (Scale bar=10 μm). […] The box and whisker plots show all data points, and the box plots show all data points, the median and IQR, and the minimal and maximal values. FIG. 12C contains representative immunoblots of indicated proteins from Hela-V5-tau cells transfected GFP or GFP-β-arrestin2 with/without HA-p62. Note that β-arrestin2 is present in HA immune complexes only in the presence of HA-p62, whereas β-arrestin2 is not detected in control IgG beads. […] Lysates were subjected to IP for HA. […] FIG. 12F show quantification of flag/p62 PLA puncta/cell (N=4 independent experiments, #P<0.0001).
(§2) Brain homogenates and cultured cells were lysed with RIPA buffer (50 mM Tris pH 7.4, 150 mM NaCl, 2 mM ethlenediaminetetraacetic acid, 1% NP-40, 0.1% sodium dodecyl sulfate) plus protease and phosphatase inhibitors. Proteins were extracted and centrifuged at 15000 rpm for 15 min at 4° C., and RIPA insoluble fractions were lysed with 5% SDS with 1% β-mercaptoethanol, 50 mM Tris-HCl pH 6.8, 12.5 mM EDTA, 10% glycerol, and 0.02% bromophenol blue. […]

The target of the next test is T2, p62 (Homo sapiens, UniProt Q13501).
T2 construct: endogenous in cells; host or cells: Hela-V5-tau cells
Kind of test: Interaction of β-arrestin2 variants with p62 (flag/p62 PLA). In kind it is cell-based. The settings on record: Hela-V5-tau cells.
Source text: as §1
Given the effects on p62 autophagy flux, whether β-arrestin2 physically interacts with p62 was tested. […] Given that β-arrestin2 oligomeric mutants, ΔIP6C and ΔIP6N, reduced tau aggregates by slowing tau turnover, next tested was whether β-arrestin2 ΔIP6C and ΔIP6N mutants affect p62 self-association by a proximity ligation assays (PLA) as well as co-IP. […]

Test [2] concerns tauopathy in tau P301S mice. Kind of test: rAAV9 stereotaxic injection into hippocampus of 5-month old tau P301S mice. In kind it is in vivo. The protocol:
Cells were fixed with 4% paraformaldehyde for 15 min at room temperature and washed with 0.2% triton in TBS and blocked using 3% BSA with 0.1% triton x-100 for 1 hr, incubated with primary antibodies for overnight at 4° C. and fluorescently labeled secondary antibodies for 45 min at room temperature. For immunohistochemistry, mice were perfused with PBS and fixed with 4% paraformaldehyde. 25-micron sections were blocked using normal goat serum for 1 h and incubated with primary antibodies at 4° C. overnight, followed by secondary antibody incubation for 1 h at room temperature prior to mounting. Images were captured with the Olympus FV10i confocal microscope (Tokyo, Japan), and the immunoreactivities were quantified using the Image J software (National Institutes of Health, Bethesda, MD). Immunoreactivities were quantitated from every 12th serial section through an entire hippocampus. In ICC and IHC experiments, all comparison images were acquired with identical laser intensity, exposure time, and filter. Adjustments to the brightness/contrast were applied equally to all comparison images. Regions of interest were chosen randomly, and investigators were blinded to experimental conditions during image acquisition and quantification.
as §2, with “blue. Supernatants were used for western blot analysis. supernatants were used for western blot analysis. co-IP experiments were carried out from NP40 lysates or indicated buffers with preclearing with IgG beads followed by IP with IgG beads alone or IgG beads+indicated antibodies, extensive washing (5×) with the original buffer, and Western blotting on SDS-PAGE.” for “blue.”

The subject of another test is activated GPCRs. The settings on record: cited from earlier work.

B1: β-arrestin2 ΔIP6N: β-arrestin2 N-terminal domain mutant (K158A, K161A, and R162A), incapable of forming oligomers; dominant negative (protein, UniProt P32121 1-409, looked up, variant K158A K161A R162A)
Beta-arrestin-2: MGEKPGTRVFKKSSPNCKLTVYLGKRDFVDHLDKVDPVDGVVLVDPDYLKDRKVFVTLTCAFRYGREDLDVLGLSFRKDLFIATYQAFPPVPNPPRPPTRLQDRLLRKLGQHAHPFFFTIPQNLPCSVTLQPGPEDTGKACGVDFEIRAFCAKSLEEASHAANSVRLVIRKVQFAPEKPGPQPSAETTRHFLMSDRSLHLEASLDKELYYHGEPLNVNVHVTNNSTKTVKKIKVSVRQYADICLFSTAQYKCPVAQLEQDDQVSPSSTFCKVYTITPLLSDNREKRGLALDGKLKHEDTNLASSTIVKEGANKEVLGILVSYRVKVKLVVSRGGDVSVELPFVLMHPKPHDHIPLPRPQSAAPETDVPVDTNLIEFDTNYATDDDIVFEDFARLRLKGMKDDDYDDQLC
modifications: GFP or YFP tag
notes: dominant negative
As for B1, the “HA-p62 and GFP-p62 interaction by co-IP” value in test [1] is “neither β-arrestin2 ΔIP6C nor β-arrestin2 ΔIP6N alone were capable of reducing HA-p62 and GFP-p62 interaction”. Moreover, the “interaction with p62 compared to β-arrestin2” value in the test with p62 was “much less interaction with p62”. Further, the “tau levels in individual brain cells with verified expression” value in test [2] (cells verified by GFP tags) was “essentially undetectable”. Also, the HT7-immunoreactive tau result in test [2] (expressing neurons vs GFP-expressing control or non-infected neurons) was “significant reductions”. For the same molecule, in test [2] (tau P301S mice, two months post injection, vs GFP control), the sarkosyl-insoluble tau entry is “markedly reduced”. For the same molecule, the “binding to activated GPCRs” value in the test on activated GPCRs is “bind to activated GPCRs with WT affinity”.
